The results in this text go back to publication PMC7418704.

This experiment has as its target Biotinylated human ACE2 ectodomain (ACROBiosystems AC2-H82E6), native dimeric form (human) (UniProt Q9BYF1). In words: FACS.

As usually defined, the Kd is the equilibrium constant for the complex coming apart. Higher therefore signals weaker binding.

Biotinylated human ACE2 ectodomain (ACROBiosystems AC2-H82E6), native dimeric form (human), sequence (Q9BYF1 18-740): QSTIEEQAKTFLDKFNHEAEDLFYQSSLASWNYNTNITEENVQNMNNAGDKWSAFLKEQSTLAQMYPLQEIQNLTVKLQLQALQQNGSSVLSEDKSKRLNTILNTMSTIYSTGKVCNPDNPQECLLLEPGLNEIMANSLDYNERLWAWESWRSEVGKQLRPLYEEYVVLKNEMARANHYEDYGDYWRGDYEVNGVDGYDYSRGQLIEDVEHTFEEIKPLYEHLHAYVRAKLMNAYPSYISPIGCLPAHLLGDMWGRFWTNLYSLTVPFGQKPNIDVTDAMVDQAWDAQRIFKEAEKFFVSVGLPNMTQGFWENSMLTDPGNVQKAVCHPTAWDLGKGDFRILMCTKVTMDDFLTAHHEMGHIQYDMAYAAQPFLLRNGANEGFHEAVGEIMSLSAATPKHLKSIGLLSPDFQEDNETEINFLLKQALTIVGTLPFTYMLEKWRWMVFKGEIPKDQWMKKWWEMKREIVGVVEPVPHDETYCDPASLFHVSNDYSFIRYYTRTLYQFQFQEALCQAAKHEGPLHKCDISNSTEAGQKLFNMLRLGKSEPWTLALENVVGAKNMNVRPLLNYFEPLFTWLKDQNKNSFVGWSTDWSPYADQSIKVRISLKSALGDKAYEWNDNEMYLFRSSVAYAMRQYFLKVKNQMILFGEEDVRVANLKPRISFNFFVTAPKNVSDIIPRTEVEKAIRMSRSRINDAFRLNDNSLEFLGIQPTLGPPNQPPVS

Consider WIV1 RBD, yeast-displayed, for which the Kd was 0.017 nM. On to ZC45 RBD, yeast-displayed, for which the Kd was > 1000 nM.

As for ZXC21 RBD, yeast-displayed, the Kd is > 1000 nM.
